Data from publication PMC8134030 (Biochemistry and Biophysics Reports, 2021).
Substitutions are numbered along the chain they refer to. Blank lines part the entries; values can stand above or below the binder they belong to.

Key:
Experiment in all cases: pull-down
MBP:Ncd^FL = target: T1, MBP:Ncd^FL (Drosophila, UniProt P20480 1-700)
T1 sequence (looked up): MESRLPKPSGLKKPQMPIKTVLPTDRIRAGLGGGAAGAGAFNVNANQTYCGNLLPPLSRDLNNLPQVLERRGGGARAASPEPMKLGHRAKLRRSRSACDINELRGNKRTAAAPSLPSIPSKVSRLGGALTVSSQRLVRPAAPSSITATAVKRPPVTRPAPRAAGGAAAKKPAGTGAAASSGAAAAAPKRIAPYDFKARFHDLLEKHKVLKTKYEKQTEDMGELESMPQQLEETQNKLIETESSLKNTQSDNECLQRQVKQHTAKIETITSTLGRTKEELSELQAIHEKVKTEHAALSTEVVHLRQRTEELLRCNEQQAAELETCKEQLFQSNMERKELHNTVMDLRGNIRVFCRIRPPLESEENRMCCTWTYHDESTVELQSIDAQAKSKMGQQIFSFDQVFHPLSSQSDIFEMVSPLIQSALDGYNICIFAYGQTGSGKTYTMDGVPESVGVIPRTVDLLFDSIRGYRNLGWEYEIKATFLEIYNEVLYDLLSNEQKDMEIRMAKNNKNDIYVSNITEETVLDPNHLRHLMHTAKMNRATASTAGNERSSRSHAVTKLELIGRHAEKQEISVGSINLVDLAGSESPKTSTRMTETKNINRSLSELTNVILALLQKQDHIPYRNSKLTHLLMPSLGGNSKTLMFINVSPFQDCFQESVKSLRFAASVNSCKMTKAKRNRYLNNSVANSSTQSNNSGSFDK

MBP:Ncd^CTm3A = target: T2, MBP:Ncd^CTm3A (Drosophila, UniProt P20480 333-700, H619A | R623A | H629A)
T2 sequence (looked up): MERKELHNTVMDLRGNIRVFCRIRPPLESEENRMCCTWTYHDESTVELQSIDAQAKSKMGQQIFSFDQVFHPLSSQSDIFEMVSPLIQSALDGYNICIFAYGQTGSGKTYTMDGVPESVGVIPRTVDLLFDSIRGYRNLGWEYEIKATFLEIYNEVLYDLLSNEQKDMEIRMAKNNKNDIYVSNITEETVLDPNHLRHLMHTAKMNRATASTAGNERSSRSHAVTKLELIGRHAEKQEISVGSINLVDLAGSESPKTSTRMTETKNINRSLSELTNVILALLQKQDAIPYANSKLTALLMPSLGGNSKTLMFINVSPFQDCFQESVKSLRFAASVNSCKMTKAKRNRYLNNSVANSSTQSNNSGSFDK

MBP:Ncd^CTm = target: T3, MBP:Ncd^CTm (Drosophila, UniProt P20480 333-700)
T3 sequence (looked up): T2 sequence (looked up) with A287H, A291R, A297H

binding result (MBP:Ncd^FL): binds
B1: Ncd^CTm, soluble untagged prey (domain or fragment, Drosophila, UniProt P20480 333-700, looked up)
chain: T2 sequence (looked up) with A287H, A291R, A297H

fold reduction in binding affinity against WT (MBP:Ncd^CTm3A): ~10 fold
Kd (MBP:Ncd^CTm): ~2000 nM
B2: Ncd^nMBD, soluble untagged prey (domain or fragment, Drosophila, UniProt P20480 1-204, looked up)
chain: MESRLPKPSGLKKPQMPIKTVLPTDRIRAGLGGGAAGAGAFNVNANQTYCGNLLPPLSRDLNNLPQVLERRGGGARAASPEPMKLGHRAKLRRSRSACDINELRGNKRTAAAPSLPSIPSKVSRLGGALTVSSQRLVRPAAPSSITATAVKRPPVTRPAPRAAGGAAAKKPAGTGAAASSGAAAAAPKRIAPYDFKARFHDLLE
